Data as given in patent publication US20190263934A1.

Assays:
[1] = molecular target: biotinylated human FcRn (hFcRn; p51 subunit residues 24-297 with C-terminal Avi-tag, β2-m residues 21-119) (human) (UniProt P55899); assay: Biacore SPR, pH 6.0, apparent affinity
[2] = molecular target: biotinylated human FcRn (hFcRn; p51 subunit residues 24-297 with C-terminal Avi-tag, β2-m residues 21-119) (human) (UniProt P55899); assay: Biacore SPR; second ratio column (inverse of c7)
[3] = molecular target: biotinylated human FcRn (hFcRn; p51 subunit residues 24-297 with C-terminal Avi-tag, β2-m residues 21-119) (human) (UniProt P55899); assay: Biacore SPR; pH 6.0 affinity (M^-1) over pH 7.4 steady state RU
[4] = molecular target: biotinylated human FcRn (hFcRn; p51 subunit residues 24-297 with C-terminal Avi-tag, β2-m residues 21-119) (human) (UniProt P55899); assay: Biacore SPR, pH 7.4, steady state, 1000 nM antibody

| Ka [1] | Ratio (pH 6.0/pH 7.4) [2] | Ratio (pH 6.0/pH 7.4) [3] | Steady State Binding, pH 7.4 (RU) [4] | Ratio (pH 7.4/pH 6.0) [2] | Substance |
| --- | --- | --- | --- | --- | --- |
| 4.65e+07 M⁻¹ | 8e-07 | 1.25e+06 | 37.2 RU |  | mAb1 MTWY variant (T307W/N434Y) (antibody) |
| 4.31e+06 M⁻¹ | 2.48e-06 | 403000 | 10.7 RU |  | mAb1 MDQN variant (T256D/T307Q) (antibody) |
| 2.81e+07 M⁻¹ |  | 597000 | 47.1 RU | 1.68e-06 | mAb1 MDWF variant (T256D/T307W/N434F) (antibody) |
| 1.28e+07 M⁻¹ | 1.82e-06 | 549000 | 23.3 RU |  | mAb1 METF variant (T256E/N434F) (antibody) |
| 4.59e+06 M⁻¹ |  | 302000 | 15.2 RU | 3.31e-06 | mAb1 YEQN variant (M252Y/T256E/T307Q) (antibody) |
| 8.7e+06 M⁻¹ |  | 439000 | 19.8 RU | 2.28e-06 | mAb1 YDQN variant (M252Y/T256D/T307Q) (antibody) |
| 6.41e+06 M⁻¹ |  | 92100 | 69.6 RU | 1.09e-05 | mAb1 YEWN variant (M252Y/T256E/T307W) (antibody) |
| 2e+06 M⁻¹ |  |  |  |  | mAb1 MEQN variant (T256E/T307Q) (antibody) |
| 3.34e+07 M⁻¹ |  | 1.48e+06 | 22.6 RU | 6.77e-07 | mAb1 YETY variant (M252Y/T256E/N434Y) (antibody) |
| 3.34e+07 M⁻¹ | 8.74e-07 | 1.14e+06 | 29.2 RU |  | mAb1 MDTF variant (T256D/N434F) (antibody) |
| 2.62e+07 M⁻¹ | 1.16e-06 | 859000 | 30.5 RU |  | mAb1 MTWF variant (T307W/N434F) (antibody) |
| 2.92e+06 M⁻¹ | 4.52e-06 | 221000 | 13.2 RU |  | mAb1 YTE variant (M252Y/S254T/T256E) (antibody) |
| 1.6e+07 M⁻¹ | 1.68e-06 | 597000 | 26.8 RU |  | mAb1 METY variant (T256E/N434Y) (antibody) |
| 6.33e+07 M⁻¹ |  | 885000 | 71.5 RU | 1.13e-06 | mAb1 YTQY variant (M252Y/T307Q/N434Y) (antibody) |
| 3.09e+07 M⁻¹ | 1.24e-06 | 805000 | 38.4 RU |  | mAb1 MTQY variant (T307Q/N434Y) (antibody) |
| 562000 M⁻¹ | 2.47e-05 | 40400 | 13.9 RU |  | mAb1 AAA variant (T307A/E380A/N434A) (antibody) |
| 7.81e+06 M⁻¹ |  | 797000 | 9.8 RU | 1.25e-06 | mAb1 YETN variant (M252Y/T256E) (antibody) |
| 3.1e+06 M⁻¹ |  |  |  |  | mAb1 MEWN variant (T256E/T307W) (antibody) |
| 142000 M⁻¹ |  |  |  |  | mAb1 MEQF variant (T256E/T307Q/N434F) (antibody) |
| 2.96e+07 M⁻¹ |  | 513000 | 57.7 RU | 1.95e-06 | mAb1 YDTF variant (M252Y/T256D/N434F) (antibody) |
| 1.07e+07 M⁻¹ | 9.07e-07 | 1.1e+06 | 9.7 RU |  | mAb1 YDTN variant (M252Y/T256D) (antibody) |
| 6.62e+06 M⁻¹ |  | 120000 | 55.3 RU | 8.35e-06 | mAb1 MDQF variant (T256D/T307Q/N434F) (antibody) |
| 2.38e+07 M⁻¹ |  | 617000 | 38.6 RU | 1.62e-06 | mAb1 MEQY variant (T256E/T307Q/N434Y) (antibody) |
